Reference: patent US8075919B2, “Methods for fabrication, uses and compositions of small spherical particles prepared by controlled phase separation” (Baxter International Inc., priority 2003, dated 2011)

Legend:
[1] = target: porcine pancreatic elastase (PPE) (Sus scrofa, UniProt P00772); experiment: Inhibition of porcine pancreatic elastase by rAAT (specific activity); format: biochemical
Experimental: To determine the specific activity, the rAAT small spherical particles were dissolved in 0.2M Tris-HCl pH 8.0 at room temperature. The resulting solution was analyzed by an assay which measures the capacity of rAAT to inhibit the ability of porcine pancreatic elastase (PPE) to hydrolyze synthetic peptides that contain a p-nitroanilide group at their C-terminus. The same solution of rAAT small spherical particles was then assayed for protein concentration using the Bicinchoninic Acid (BCA) assay. A control rAAT starting material solution was also analyzed in both assays. Because the activity assay was developed to determine the activity based on a concentration of 1 mg/ml protein per sample, the activity value was corrected based on the actual protein concentration as determined by BCA, giving the specific activity value:
[formula] Inhibition of Porcine Pancreatic Elastase by rAAT

[2] = system: DNA-Methyl Green; details: listed value for the starting material; cited from earlier work

Sequence of porcine pancreatic elastase (PPE) (P00772 27-266): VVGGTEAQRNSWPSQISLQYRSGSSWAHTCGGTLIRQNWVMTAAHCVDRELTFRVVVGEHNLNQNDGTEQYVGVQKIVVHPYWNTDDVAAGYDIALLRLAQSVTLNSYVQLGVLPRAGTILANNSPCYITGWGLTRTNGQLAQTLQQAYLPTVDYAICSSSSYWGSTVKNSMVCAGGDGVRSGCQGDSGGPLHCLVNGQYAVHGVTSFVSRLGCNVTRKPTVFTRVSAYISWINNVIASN

Q: With “alpha-1-antitrypsin [control rAAT starting material]” as the substance, how does the specific activity ([1]; scale 100-300 mg (n = 12, column)) read?
A: 64.34 ± 4.95 IU/mg

Q: And the specific activity ([1]; scale 200-300 mg (n = 8, vessel))?
A: 65.87 ± 0.98 IU/mg

Q: Which “theoretical activity as listed” value [2] does the source give for DNase [DNase starting material] here?
A: 775 Ku/mg protein
